According to publication PMC4430316, “Differential Phosphorylation of RNA Polymerase III and the Initiation Factor TFIIIB in Saccharomyces cerevisiae” (PLoS ONE, 2015):

Target: T1, Rpc160-HA (S. cerevisiae, UniProt P04051 1-1460)
T1 construct: Rpc160 (C160), largest subunit of RNA polymerase III, S. cerevisiae; Precipitated from cell extract, so other pol III subunits are probably present with it; also called C160-3HA; largest subunit of pol III; not shown: 3HA, C-terminal, kept
T1 sequence (looked up): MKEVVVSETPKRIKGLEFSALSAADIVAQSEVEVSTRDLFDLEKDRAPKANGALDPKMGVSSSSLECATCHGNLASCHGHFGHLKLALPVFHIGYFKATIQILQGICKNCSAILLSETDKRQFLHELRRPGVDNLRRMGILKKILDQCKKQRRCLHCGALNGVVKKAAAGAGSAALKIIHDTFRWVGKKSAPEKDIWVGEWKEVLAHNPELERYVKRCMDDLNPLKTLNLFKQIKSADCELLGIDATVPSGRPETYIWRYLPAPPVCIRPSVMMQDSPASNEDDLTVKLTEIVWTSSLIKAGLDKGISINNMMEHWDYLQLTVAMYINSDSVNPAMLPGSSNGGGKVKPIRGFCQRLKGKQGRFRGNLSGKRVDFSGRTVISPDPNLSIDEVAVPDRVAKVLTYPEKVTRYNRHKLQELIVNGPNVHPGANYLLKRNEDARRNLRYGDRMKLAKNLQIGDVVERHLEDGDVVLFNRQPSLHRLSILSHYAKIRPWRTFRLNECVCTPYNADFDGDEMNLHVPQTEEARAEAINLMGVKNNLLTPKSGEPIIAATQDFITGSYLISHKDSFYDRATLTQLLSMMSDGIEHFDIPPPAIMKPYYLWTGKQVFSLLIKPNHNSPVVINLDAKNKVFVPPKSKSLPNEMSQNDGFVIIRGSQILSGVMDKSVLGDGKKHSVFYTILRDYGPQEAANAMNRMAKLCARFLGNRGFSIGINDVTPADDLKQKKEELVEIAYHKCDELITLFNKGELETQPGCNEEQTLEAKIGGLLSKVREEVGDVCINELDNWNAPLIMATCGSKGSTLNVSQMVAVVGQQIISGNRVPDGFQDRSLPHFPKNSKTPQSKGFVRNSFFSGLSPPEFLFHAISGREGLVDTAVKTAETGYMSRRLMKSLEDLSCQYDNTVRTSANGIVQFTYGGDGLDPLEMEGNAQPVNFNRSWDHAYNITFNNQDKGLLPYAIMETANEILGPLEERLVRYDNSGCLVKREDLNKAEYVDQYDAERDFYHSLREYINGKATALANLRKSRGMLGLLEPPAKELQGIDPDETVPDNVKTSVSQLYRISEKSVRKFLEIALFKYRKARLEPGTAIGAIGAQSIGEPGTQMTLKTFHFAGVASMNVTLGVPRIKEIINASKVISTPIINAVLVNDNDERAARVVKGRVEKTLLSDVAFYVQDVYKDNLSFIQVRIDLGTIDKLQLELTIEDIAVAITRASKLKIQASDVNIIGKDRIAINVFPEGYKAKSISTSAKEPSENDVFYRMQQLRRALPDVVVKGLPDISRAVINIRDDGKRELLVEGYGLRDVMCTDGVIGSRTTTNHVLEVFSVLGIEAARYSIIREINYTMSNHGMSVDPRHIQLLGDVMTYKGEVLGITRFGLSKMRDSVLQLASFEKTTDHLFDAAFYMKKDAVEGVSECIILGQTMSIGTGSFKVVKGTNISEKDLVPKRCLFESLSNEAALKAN
Test: co-IP; Rpc160-HA precipitated with HA monoclonal antibody 12CA5 and protein G-Sepharose from yeast extracts (glass bead breakage, KBC100 buffer with protease and phosphatase inhibitors); Maf1 detected with polyclonal Maf1 antibody, Maf1myc with anti-myc; cells treated with rapamycin or untreated; also in BDP1 wild-type and BDP1-4SA strains (S4 Fig)
Details: partners not purified

B1: Maf1 (natural protein, S. cerevisiae, UniProt P41910 1-395, looked up)
chain: MKFIDELDIERVNQTLNFETNDCKIVGSCDIFTTKAVASDRKLYKTIDQHLDTILQENENYNATLQQQLAAPETNQSPCSSPFYSNRRDSNSFWEQKRRISFSEYNSNNNTNNSNGNSSNNNNYSGPNGSSPATFPKSAKLNDQNLKELVSNYDSGSMSSSSLDSSSKNDERIRRRSSSSISSFKSGKSSNNNYSSGTATNNVNKRRKSSINERPSNLSLGPFGPINEPSSRKIFAYLIAILNASYPDHDFSSVEPTDFVKTSLKTFISKFENTLYSLGRQPEEWVWEVINSHMTLSDCVLFQYSPSNSFLEDEPGYLWNLIGFLYNRKRKRVAYLYLICSRLNSSTGEVEDALAKKPQGKLIIDDGSNEYEGEYDFTYDENVIDDKSDQEESLQ
notes: Maf1, repressor of RNA polymerase III transcription, S. cerevisiae; untagged, detected with a polyclonal Maf1 antibody; Phosphorylation state differs between control and rapamycin-treated cells; also called untagged Maf1; source: endogenous, yeast cell extract
- fold increase of Maf1 co-immunoprecipitated with Rpc160 in rapamycin-treated against untreated cells: ~13 fold

B2: Maf1myc (natural protein, S. cerevisiae, UniProt P41910 1-395, looked up)
chain: MKFIDELDIERVNQTLNFETNDCKIVGSCDIFTTKAVASDRKLYKTIDQHLDTILQENENYNATLQQQLAAPETNQSPCSSPFYSNRRDSNSFWEQKRRISFSEYNSNNNTNNSNGNSSNNNNYSGPNGSSPATFPKSAKLNDQNLKELVSNYDSGSMSSSSLDSSSKNDERIRRRSSSSISSFKSGKSSNNNYSSGTATNNVNKRRKSSINERPSNLSLGPFGPINEPSSRKIFAYLIAILNASYPDHDFSSVEPTDFVKTSLKTFISKFENTLYSLGRQPEEWVWEVINSHMTLSDCVLFQYSPSNSFLEDEPGYLWNLIGFLYNRKRKRVAYLYLICSRLNSSTGEVEDALAKKPQGKLIIDDGSNEYEGEYDFTYDENVIDDKSDQEESLQ
notes: Maf1, repressor of RNA polymerase III transcription, S. cerevisiae; also called Maf1-9myc; C-terminal myc-tagged Maf1
- fold increase of Maf1myc co-immunoprecipitated with Rpc160 in rapamycin-treated against untreated cells: < 2 fold
